T1: FolK, purified protein (E. coli, UniProt P26281 1-159)
T1 construct: FolK of E. coli (encoded by the gene folK); Expression and purification are not described
T1 sequence: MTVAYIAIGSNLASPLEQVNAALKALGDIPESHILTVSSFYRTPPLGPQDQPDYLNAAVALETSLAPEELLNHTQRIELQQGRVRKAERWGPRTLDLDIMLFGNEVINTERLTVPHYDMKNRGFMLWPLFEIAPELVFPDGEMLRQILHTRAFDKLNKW


Key:
[1] = biological target: adenylate kinase (Adk), split-YFP fusion (E. coli) (UniProt P69441); assay: split reporter (BiFC, NanoBiT); split monomeric EYFP (155/156) in living E. coli BW27783; NYFP fusion IPTG-induced, CYFP fusion arabinose-induced (0.2% arabinose, 1 mM IPTG), 30 °C 4-5 h; mean fluorescence intensity (MFI) of 30,000 cells by flow cytometry; both configurations measured, the higher value used; inducers also titrated for three pairs
Chain of adenylate kinase (Adk), split-YFP fusion (E. coli) (P69441 whole entry, the tested form may be a part): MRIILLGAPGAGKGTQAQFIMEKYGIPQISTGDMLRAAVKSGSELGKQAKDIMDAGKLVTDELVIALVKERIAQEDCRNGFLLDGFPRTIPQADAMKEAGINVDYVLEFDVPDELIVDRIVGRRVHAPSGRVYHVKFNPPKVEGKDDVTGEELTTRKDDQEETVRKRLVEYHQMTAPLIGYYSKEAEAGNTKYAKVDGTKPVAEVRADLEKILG

[2] = biological target: T1, FolK, purified protein; assay: Raman spectroscopy; titration: DHFR 7.5-50 µM, FolK fixed at 15 µM; area of the interaction-specific peak at ~1663 cm^-1 against DHFR concentration, hyperbolic fit; details: both partners purified

| Molecule | MFI (mean YFP fluorescence intensity) [1] | Kd [2] |
| --- | --- | --- |
| dihydrofolate reductase (DHFR, FolA), split-YFP fusion (from UniProt P0ABQ4 1-159) (enzyme) | 641 | – |
| DHFR, wild type, purified protein (enzyme, E. coli, dihydrofolate reductase (DHFR, FolA) of E. coli; Expression and purification are not described; also called WT DHFR; WT-DHFR) MISLIAALAVDRVIGMENAMPWNLPADLAWFKRNTLNKPVIMGRHTWESIGRPLPGRKNIILSSQPGTDDRVTWVKSVDEAIAACGDVPEIMVIGGGRVYEQFLPKAQKLYLTHIDAEVEGDTHFPDYEPDDWESVFSEFHDADAQNSHSYCFEILERR | – | 22 µM |
| D144N DHFR, purified protein (enzyme, E. coli, dihydrofolate reductase (DHFR) of E. coli with one substitution; as m28; Expression and purification are not described; also called D144N mutant of DHFR) MISLIAALAVDRVIGMENAMPWNLPADLAWFKRNTLNKPVIMGRHTWESIGRPLPGRKNIILSSQPGTDDRVTWVKSVDEAIAACGDVPEIMVIGGGRVYEQFLPKAQKLYLTHIDAEVEGDTHFPDYEPDDWESVFSEFHDANAQNSHSYCFEILERR | – | 10 µM |
| N23V DHFR, purified protein (enzyme, E. coli, dihydrofolate reductase (DHFR) of E. coli with one substitution; as m28; Expression and purification are not described; also called N23V mutant of DHFR) MISLIAALAVDRVIGMENAMPWVLPADLAWFKRNTLNKPVIMGRHTWESIGRPLPGRKNIILSSQPGTDDRVTWVKSVDEAIAACGDVPEIMVIGGGRVYEQFLPKAQKLYLTHIDAEVEGDTHFPDYEPDDWESVFSEFHDADAQNSHSYCFEILERR | – | 5.1 µM |
| D132H DHFR, purified protein (enzyme, E. coli, dihydrofolate reductase (DHFR) of E. coli with one substitution; as m28; Expression and purification are not described; also called D132H mutant of DHFR) MISLIAALAVDRVIGMENAMPWNLPADLAWFKRNTLNKPVIMGRHTWESIGRPLPGRKNIILSSQPGTDDRVTWVKSVDEAIAACGDVPEIMVIGGGRVYEQFLPKAQKLYLTHIDAEVEGDTHFPDYEPDHWESVFSEFHDADAQNSHSYCFEILERR | – | 8.1 µM |

— article PMC12583656, “Conserved interfaces mediate multiple protein–protein interactions in a prokaryotic metabolon” (Molecular Systems Biology, 2025)
